Biological target: T1, RIIα binding to AKAP110 (Mus musculus, UniProt P12367)
T1 construct: made in house; host or cells: E. coli
Test: RII overlay binding assay with 32P-labeled RIIα
Settings: peptide included in the binding assay at a concentration of 1 μM; results in FIG. 4D
Protocol: The identity of AKAP110 in the extracts prepared as described above was determine using an RII overlay assay. This assay was based on previous experiments which had shown that PKA anchoring proteins could be specifically detected after electrophoretic separation by overlay with labeled RII subunit of mammalian PKA (see Vijayaraghavan et al., 1997, J. Biol. Chem. 272; 4747-4752). These assays were performed as follows. Polyacrylamide gel electrophoresis containing sodium dodecyl sulfate (SDS/PAGE) was performed as described in Johnson et al. (1997, Devel. Biol. 192: 340-350) and Visconti et al. (1997, Devel. Biol. 192: 351-363). Approximately […] protein per lane was loaded on a 10% gel and electrophoresed overnight at a constant current of 8mA. After electrophoresis, protein bands were transferred to Immobilon P (polyvinylidene difluoride, obtained from Millipore, Bedford, Mass.) as described in the Johnson and Visconti references. […]
The conserved regions of sequence are expected to correspond to functional domains. The portion of the sequence corresponding to the RII binding domain was determined using an RII overlay assay as follows. […] This blot was then hybridized with ^32P-labeled RIIα (results shown in FIG. 4A) or with horse radish peroxidase-conjugated S-protein that detects an S-tag expressed as a fusion protein by the pET30A vector (results shown in FIG. 4B). […]

T1 sequence (P12367 2-401 limits assumed): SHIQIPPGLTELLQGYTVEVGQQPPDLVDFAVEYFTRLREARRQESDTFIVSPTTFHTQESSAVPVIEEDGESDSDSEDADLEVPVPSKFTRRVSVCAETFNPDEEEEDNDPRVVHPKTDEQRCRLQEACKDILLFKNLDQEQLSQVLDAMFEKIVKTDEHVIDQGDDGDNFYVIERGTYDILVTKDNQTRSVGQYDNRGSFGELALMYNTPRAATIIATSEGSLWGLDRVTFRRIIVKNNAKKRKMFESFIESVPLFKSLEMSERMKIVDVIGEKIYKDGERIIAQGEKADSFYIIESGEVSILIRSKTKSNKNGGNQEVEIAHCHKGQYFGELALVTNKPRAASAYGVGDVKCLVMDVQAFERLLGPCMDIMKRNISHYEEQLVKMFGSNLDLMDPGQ

For SFYANRLTNLVI (listed as Mus musculus), the “radiolabeled RIIα binding” value was “prevent radiolabeled RIIα binding”.

Source: patent publication US6451528B1, “Sperm-specific AKAP protein genes and uses” (Oregon Health & Sciences University, priority 1999, dated 2002)
